Columns and labels:
[1] = target: human cystatin C (Cst-3), E. coli expressed (human) (UniProt P01034); experiment: SEC; gel permeation on Superdex 200 in 20 mM Tris, 150 mM NaCl, pH 7.1, after cation exchange; monomer and dimer told by elution
papain = papain (UniProt P00784)
UniProt P00784, sequence (P00784 134-345): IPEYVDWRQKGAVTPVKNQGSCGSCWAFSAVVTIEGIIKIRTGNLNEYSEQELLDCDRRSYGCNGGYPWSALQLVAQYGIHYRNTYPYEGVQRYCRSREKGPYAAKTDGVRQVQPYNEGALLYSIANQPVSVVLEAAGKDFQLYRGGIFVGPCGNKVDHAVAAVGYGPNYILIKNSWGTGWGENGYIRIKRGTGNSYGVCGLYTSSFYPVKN

human cystatin C (Cst-3), E. coli expressed (from UniProt P01034 27-146) (natural protein)
stoichiometry N [1]: 2

murine cystatin C (Cst-3), E. coli expressed (from UniProt P21460 21-140) (natural protein)
inhibition of papain activity (colorimetric peptide substrate Z-Phe-Arg-pNA, pH 5.5) by 60 nM Cst-3 preincubated with equimolar heparin or HS hexasaccharide, against apo Cst-3 (papain): 80%
